From patent publication US20040166543A1 (Dana-Farber, published 2004)

How the values were obtained:
[1] = target: T1, glutathione S-transferase (GST) (UniProt P08515 1-218 = GST); test: GST pull-down, anti-MUC1/CD immunoblot (FIG. 1B)
[2] = target: T1, glutathione S-transferase (GST); test: GST pull-down, anti-MUC1/CD immunoblot (FIG. 4A)
Method: The proteins in the eight different reaction mixtures were incubated with either GST or GST fused to β-catenin (“GST-β-Cat”). The resulting mixtures were incubated with glutathione-Sepharose 4B™ beads.
The beads were then added to the phosphorylation reaction mixture (described above) which was incubated for 1 h at 4° C.

T1 sequence (P08515 whole entry): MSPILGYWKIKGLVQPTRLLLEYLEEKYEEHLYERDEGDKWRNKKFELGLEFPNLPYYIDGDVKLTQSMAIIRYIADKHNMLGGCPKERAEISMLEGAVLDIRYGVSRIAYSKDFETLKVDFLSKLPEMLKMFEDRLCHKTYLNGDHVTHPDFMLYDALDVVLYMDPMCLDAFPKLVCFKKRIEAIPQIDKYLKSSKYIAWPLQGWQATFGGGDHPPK

Row | binding result [1] | binding result [2] | Binder
1 | no binding | – | MUC1/CD (purified hexahistidine tagged MUC1 cytoplasmic domain), unphosphorylated (other, also called His-MUC1/CD; MUC1/CD (WT); not shown: hexahistidine tag) CQCRRKNYGQLDIFPARDTYHPMSEYPTYHTHGRYVPPSSTDRSPYEKVSAGNGGSSLSYTNPAVAATSANL
2 | – | no binding | MUC1/CD phosphorylated by c-Src (incubated with c-Src and ATP) (other, phosphotyrosine at 46 (YEKV site) and at other sites that are not named; made in vitro with purified c-Src and ATP, also called phosphorylated MUC1/CD; not shown: hexahistidine tag) CQCRRKNYGQLDIFPARDTYHPMSEYPTYHTHGRYVPPSSTDRSPYEKVSAGNGGSSLSYTNPAVAATSANL
